The results in this text go back to patent US9023987B2, “Cell-permeable peptide” (Seoul National University R&DB Foundation, priority 2010, dated 2015).

Bounds are passed on as bounds.

Assay [1] addresses T1, human-derived Smurf1 protein (Homo sapiens, UniProt Q9HCE7).
T1 construct: purchased Origene Technologies (Rockville, Md., USA)
Nature of the assay: Affinity to Smurf1 by surface plasmon resonance (BIACORE T100). The class given is binding. The note with it: 10 mM analyte over Smurf1 coupled to CM5 chip; FIG. 2A. Here is the method: In order to confirm the affinity between cell permeable peptide-bone differentiation inducing sequence conjugate and Smurf1 by a chemical method, a human-derived Smurf1 protein acting as a ligand in the present experiment was purchased from Origene Technologies (Rockville, Md., USA). The protein ([…]) was coupled to a gold coated surface of a CM5 chip (BIACORE AB, Sweden) on which amino groups are bounded using an EDC/NHS kit (BIACORE AB, Sweden). (Instead of this experimental method, ‘Immobilization’ integrated into the BIACORE® T100 (BIACORE AB, Sweden) software used by the present inventors may be used). In this case, in order to find a suitable pH condition at which the protein may bind to the amino group in the CM5 chip, a method called ‘pH scouting’ was performed, thereby finding a pH condition. As a method of ‘pH scouting’, a method integrated in the BIACORE® T100 (BIACORE AB, Sweden) software used by the present inventors may be used. […]

In the next assay the target is T2, Smurf1 (Homo sapiens, UniProt Q9HCE7).
T2 construct: endogenous in cells; host or cells: human mesenchymal stem cells (hMSC)
T2 sequence (Q9HCE7 whole entry): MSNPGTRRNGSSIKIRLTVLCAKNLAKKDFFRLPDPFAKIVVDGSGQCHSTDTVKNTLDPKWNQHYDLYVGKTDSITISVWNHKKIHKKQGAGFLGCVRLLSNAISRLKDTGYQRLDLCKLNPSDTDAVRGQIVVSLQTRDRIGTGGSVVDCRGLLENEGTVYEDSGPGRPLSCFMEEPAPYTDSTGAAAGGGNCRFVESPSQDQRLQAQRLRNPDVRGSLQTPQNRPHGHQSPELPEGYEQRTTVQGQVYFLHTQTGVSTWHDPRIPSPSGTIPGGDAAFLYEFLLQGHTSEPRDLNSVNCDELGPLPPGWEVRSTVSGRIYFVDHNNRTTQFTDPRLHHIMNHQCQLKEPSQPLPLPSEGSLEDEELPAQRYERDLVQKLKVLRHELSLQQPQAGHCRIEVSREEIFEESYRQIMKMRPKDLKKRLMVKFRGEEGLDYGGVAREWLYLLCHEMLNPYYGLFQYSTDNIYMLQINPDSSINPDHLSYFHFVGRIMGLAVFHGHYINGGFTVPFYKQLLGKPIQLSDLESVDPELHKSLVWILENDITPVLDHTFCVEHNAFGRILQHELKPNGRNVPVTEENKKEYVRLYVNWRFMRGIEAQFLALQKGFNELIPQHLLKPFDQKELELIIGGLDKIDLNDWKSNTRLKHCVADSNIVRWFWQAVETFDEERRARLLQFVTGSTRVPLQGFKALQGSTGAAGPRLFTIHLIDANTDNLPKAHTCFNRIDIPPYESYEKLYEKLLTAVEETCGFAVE
Nature of the assay: Immuno-precipitation and western blot of Smad1/5/8 ubiquitination in hMSC. The class given is cell-based. To be noted: hMSC pre-treated with MG132, 10 mM peptide, 1 hour 30 minutes; compared with MG132 only; FIG. 2B. The text has this: In order to confirm presence or absence of the active site of the cell permeable peptide-bone differentiation inducing sequence conjugate synthesized by the method in Example 1 for binding to Smurf1, an immuno-precipitation method and a western blot assay method were used. The present experimental method is applied in order to confirm that the cell permeable peptide-bone differentiation inducing sequence conjugate synthesized by the method in Example 1 may suppress a bioactivity of Smurf1 decomposing Smd1/5/8 as one of the E3 ligases playing a role in ubiquitin ligation.
1×10^6 human mesenchymal stem cells (hMSC) used as a model cell in the present experiment were plated in each dish and then cultured in a general medium for 20 hours (overnight incubation). Then the cells was cultured in an hMSC basal medium (MSCBM™, LONZA, USA) containing 0.5% fetal bovine serum (FBS, GIBCO, USA) for 20 hours (overnight starvation). After overnight starvation in 0.5% MSCBM™, […] MG132 (MG132; proteasome inhibitor, Merck, USA) was added to the same medium to allow the cells to be pre-treated for 2 hours. Thereafter, the cell permeable peptide-bone differentiation inducing sequence conjugate synthesized by the method in Example 1 and peptides of Comparative Examples 1 and 2 were injected into each dish at a concentration of […], respectively, and cultured for 1 hour 30 minutes. […]
On the technique in general: Immunoblotting shows a protein as a band on a membrane.

The test system of assay [2] is human mesenchymal stem cells (hMSC). The assay can be described thus: Cell permeability by flow cytometry. The note with it: FITC-labeled, relative to bone differentiation inducing sequence, FIG. 3B. The arrangement: dose or concentration left out as unconfirmed. The class given is cell-based. The protocol: The domains synthesized in Example 1 and Comparative Examples 1 and 2 were labeled with a fluorescent material in order to measure cell permeability. 10 equivalents of fluorescein isothiocyanate (FITC) was bound to N-terminals of the synthesized domains by using triethylamine (1 ml per 1 g of resin). The synthesis of the peptide was confirmed by measuring the molecular weight thereof through MALDI-TOF.
In order to quantitatively confirm the cell permeability and cell permeation degree of fluorescence labeled magnetic nanoparticle conjugates, after 1×10^5 human mesenchymal stem cells (hMSC) were plated in each well of 6-well plate, the cells were cultured in a general medium for 20 hours (overnight incubation). […] fluorescence labeled cell permeable peptide-bone differentiation inducing sequence conjugate and […] fluorescence labeled bone differentiation inducing sequence that were obtained by binding FITC (SIGMA, USA) N-terminals of the cell permeable peptide-bone differentiation inducing sequence conjugate synthesized by the method in Example 1 and the domain in Comparative Example 2 to synthesize the fluorescence label conjugate and fluorescence label domain, followed by isolation and purification, were injected into each well and washed with the phosphate buffer solution (PBS) two times after 20, 40, 60, and 80 minutes of injection. […]

T1 sequence (Q9HCE7 whole entry): as above

For “NH2-GAPPPADSAP-SSRKKNPNCRRH-C-COONH2 (H-GAPPPADSAPSSRKKNPNCRRHC-NH2; cysteine pairing not given here) [Example 1]”, the “affinity to Smurf1” value in assay [1] worked out at 600 RU. The “ubiquitination of Smad1/5/8 (ubiquitin antibody after Smad1/5/8 immuno-precipitation)” value in the assay with Smurf1 was “ubiquitination of Smad1/5/8 was suppressed”. For the same substance, in assay [2], the “relative increase of fluorescence intensity (flow cytometry)” value is no less than 10 times.
